We go through six variants from IntAct's records for PubMed 10531343.

B1: Synaptotagmin-3 (Mus musculus), O35681 (parent)
chain: MSGDYEDDLCRRALILVSDLCARVRDADTNDRCQEFNELRIRGYPRGPDADISVSLLSVIVTFCGIVLLGVSLFVSWKLCWVPWRDKGGSAVGGGPLRKDLAPGVGLAGLVGGGGHHLGASLGGHPLLGGPHHHGHTAHHPPFAELLEPGGLGGSEPPEPSYLDMDSYPEAAVASVVAAGVKPSQTSPELPSEGGTGSGLLLLPPSGGGLPSAQSHQQVTSLAPTTRYPALPRPLTQQTLTTQADPSTEERPPALPLPLPGGEEKAKLIGQIKPELYQGTGPGGRRGGGSGEAGAPCGRISFALRYLYGSDHLVVRILQALDLPAKDSNGFSDPYVKIYLLPDRKKKFQTKVHRKTLNPIFNETFQFSVPLAELAQRKLHFSVYDFDRFSRHDLIGQVVLDNLLELAEQPPDRPLWRDILEGGSEKADLGELNFSLCYLPTAGRLTVTIIKASNLKAMDLTGFSDPYVKASLISEGRRLKKRKTSIKKNTLNPTYNEALVFDVAPESVENVGLSIAVVDYDCIGHNEVIGVCRVGPEAADPHGREHWAEMLANPRKPVEHWHQLVEEKTLSSFTKGGKGLSEKENSE
partner: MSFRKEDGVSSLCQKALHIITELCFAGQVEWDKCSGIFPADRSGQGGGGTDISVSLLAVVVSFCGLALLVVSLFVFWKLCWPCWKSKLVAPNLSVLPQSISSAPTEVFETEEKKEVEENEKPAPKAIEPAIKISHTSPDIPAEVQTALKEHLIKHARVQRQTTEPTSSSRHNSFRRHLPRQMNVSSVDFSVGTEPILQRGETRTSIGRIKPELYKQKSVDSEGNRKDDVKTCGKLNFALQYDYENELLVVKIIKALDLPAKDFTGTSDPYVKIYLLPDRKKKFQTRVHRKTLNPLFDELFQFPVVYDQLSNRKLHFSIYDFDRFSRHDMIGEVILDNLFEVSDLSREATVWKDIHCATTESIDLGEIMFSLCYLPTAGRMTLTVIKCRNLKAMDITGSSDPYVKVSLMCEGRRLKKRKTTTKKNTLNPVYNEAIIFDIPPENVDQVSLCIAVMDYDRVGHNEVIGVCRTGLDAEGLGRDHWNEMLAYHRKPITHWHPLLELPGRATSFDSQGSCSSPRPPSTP
B2: Synaptotagmin-6 (Mus musculus), Q9R0N8 (parent)
chain: MSGVWGAGGPRCQAALAVLASLCRARPPPLGLDVETCRSFELQSPEQSPSAADSGTSVSLLAVVVIVCGVALVAVFLFLFWKLCWMPWRKKEASSPSSANPASETLQSPSSRGNMADKLKDPSALGFLEAAVKISHTSPDIPAEVQMSVKEHIMRHTKLQRQTTEPASSTRHTSFKRHLPRQMHVSSVDYGNELPPAAAEQPTSIGRIKPELYKQKSVDGDDAKSEAAKSCGKINFSLRYDYESETLIVRILKAFDLPAKDFCGSSDPYVKIYLLPDRKCKLQTRVHRKTLNPTFDENFHFPVPYEELADRKLHLSVFDFDRFSRHDMIGEVILDNLFEASDLSRETSIWKDIQYATSESVDLGEIMFSLCYLPTAGRLTLTVIKCRNLKAMDITGYSDPYVKVSLLCDGRRLKKKKTTIKKNTLNPIYNEAIIFDIPPENMDQVSLLISVMDYDRVGHNEIIGVCRVGINAEGLGRDHWNEMLAYPRKPIAHWHSLVEVKKSFKEGTPRL
partner: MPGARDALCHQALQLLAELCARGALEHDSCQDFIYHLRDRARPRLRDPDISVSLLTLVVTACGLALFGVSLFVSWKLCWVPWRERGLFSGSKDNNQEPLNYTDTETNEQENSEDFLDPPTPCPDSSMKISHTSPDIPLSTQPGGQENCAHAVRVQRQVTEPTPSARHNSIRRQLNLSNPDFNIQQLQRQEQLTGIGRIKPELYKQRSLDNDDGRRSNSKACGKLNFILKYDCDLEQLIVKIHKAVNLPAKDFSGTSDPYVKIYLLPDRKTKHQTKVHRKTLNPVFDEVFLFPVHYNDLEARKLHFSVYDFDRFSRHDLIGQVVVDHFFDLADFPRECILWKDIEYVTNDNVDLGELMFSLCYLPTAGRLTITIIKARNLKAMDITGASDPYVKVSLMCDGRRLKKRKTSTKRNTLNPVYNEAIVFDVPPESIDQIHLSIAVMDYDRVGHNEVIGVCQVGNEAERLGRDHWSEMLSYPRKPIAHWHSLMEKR
B3: Synaptotagmin-3 (Mus musculus), O35681 (parent)
chain: B1 chain
partner: B2 partner
B4: Synaptotagmin-3 (Mus musculus), O35681 (parent)
chain: B1 chain
partner: B2 chain
B5: Synaptotagmin-10 (Mus musculus), Q9R0N4 (parent)
chain: B1 partner
partner: B1 chain
B6: Synaptotagmin-9 (Mus musculus), Q9R0N9 (parent)
chain: B2 partner
partner: B2 chain

In one assay the parent is B1. The settings on record: with syt10_mouse Syt10, Q9R0N4.
As for MSGDYEDDLARRALILVSDLCARVRDADTNDRCQEFNELRIRGYPRGPDADISVSLLSVIVTFCGIVLLGVSLFVSWKLCWVPWRDKGGSAVGGGPLRKDLAPGVGLAGLVGGGGHHLGASLGGHPLLGGPHHHGHTAHHPPFAELLEPGGLGGSEPPEPSYLDMDSYPEAAVASVVAAGVKPSQTSPELPSEGGTGSGLLLLPPSGGGLPSAQSHQQVTSLAPTTRYPALPRPLTQQTLTTQADPSTEERPPALPLPLPGGEEKAKLIGQIKPELYQGTGPGGRRGGGSGEAGAPCGRISFALRYLYGSDHLVVRILQALDLPAKDSNGFSDPYVKIYLLPDRKKKFQTKVHRKTLNPIFNETFQFSVPLAELAQRKLHFSVYDFDRFSRHDLIGQVVLDNLLELAEQPPDRPLWRDILEGGSEKADLGELNFSLCYLPTAGRLTVTIIKASNLKAMDLTGFSDPYVKASLISEGRRLKKRKTSIKKNTLNPTYNEALVFDVAPESVENVGLSIAVVDYDCIGHNEVIGVCRVGPEAADPHGREHWAEMLANPRKPVEHWHQLVEEKTLSSFTKGGKGLSEKENSE [C10A], the “effect of a mutation on the interaction” value is given as “decreasing interaction”.

The next assay covers variants of B2. The note with it: with syt9_mouse Syt9, Q9R0N9.
Consider MSGVWGAGGPRAQAALAVLASLCRARPPPLGLDVETCRSFELQSPEQSPSAADSGTSVSLLAVVVIVCGVALVAVFLFLFWKLCWMPWRKKEASSPSSANPASETLQSPSSRGNMADKLKDPSALGFLEAAVKISHTSPDIPAEVQMSVKEHIMRHTKLQRQTTEPASSTRHTSFKRHLPRQMHVSSVDYGNELPPAAAEQPTSIGRIKPELYKQKSVDGDDAKSEAAKSCGKINFSLRYDYESETLIVRILKAFDLPAKDFCGSSDPYVKIYLLPDRKCKLQTRVHRKTLNPTFDENFHFPVPYEELADRKLHLSVFDFDRFSRHDMIGEVILDNLFEASDLSRETSIWKDIQYATSESVDLGEIMFSLCYLPTAGRLTLTVIKCRNLKAMDITGYSDPYVKVSLLCDGRRLKKKKTTIKKNTLNPIYNEAIIFDIPPENMDQVSLLISVMDYDRVGHNEIIGVCRVGINAEGLGRDHWNEMLAYPRKPIAHWHSLVEVKKSFKEGTPRL [C12A], for which the “effect of a mutation on the interaction” value was “decreasing interaction”.

The variants in a further assay derive from B3. The note with it: with syt9_mouse Syt9, Q9R0N9.
As to MSGDYEDDLARRALILVSDLCARVRDADTNDRCQEFNELRIRGYPRGPDADISVSLLSVIVTFCGIVLLGVSLFVSWKLCWVPWRDKGGSAVGGGPLRKDLAPGVGLAGLVGGGGHHLGASLGGHPLLGGPHHHGHTAHHPPFAELLEPGGLGGSEPPEPSYLDMDSYPEAAVASVVAAGVKPSQTSPELPSEGGTGSGLLLLPPSGGGLPSAQSHQQVTSLAPTTRYPALPRPLTQQTLTTQADPSTEERPPALPLPLPGGEEKAKLIGQIKPELYQGTGPGGRRGGGSGEAGAPCGRISFALRYLYGSDHLVVRILQALDLPAKDSNGFSDPYVKIYLLPDRKKKFQTKVHRKTLNPIFNETFQFSVPLAELAQRKLHFSVYDFDRFSRHDLIGQVVLDNLLELAEQPPDRPLWRDILEGGSEKADLGELNFSLCYLPTAGRLTVTIIKASNLKAMDLTGFSDPYVKASLISEGRRLKKRKTSIKKNTLNPTYNEALVFDVAPESVENVGLSIAVVDYDCIGHNEVIGVCRVGPEAADPHGREHWAEMLANPRKPVEHWHQLVEEKTLSSFTKGGKGLSEKENSE [C10A], the “effect of a mutation on the interaction” value is recorded as “decreasing interaction”.

Variants of B4 are the subject of the next assay. The settings on record: with syt6_mouse Syt6, Q9R0N8.
As to MSGDYEDDLARRALILVSDLCARVRDADTNDRCQEFNELRIRGYPRGPDADISVSLLSVIVTFCGIVLLGVSLFVSWKLCWVPWRDKGGSAVGGGPLRKDLAPGVGLAGLVGGGGHHLGASLGGHPLLGGPHHHGHTAHHPPFAELLEPGGLGGSEPPEPSYLDMDSYPEAAVASVVAAGVKPSQTSPELPSEGGTGSGLLLLPPSGGGLPSAQSHQQVTSLAPTTRYPALPRPLTQQTLTTQADPSTEERPPALPLPLPGGEEKAKLIGQIKPELYQGTGPGGRRGGGSGEAGAPCGRISFALRYLYGSDHLVVRILQALDLPAKDSNGFSDPYVKIYLLPDRKKKFQTKVHRKTLNPIFNETFQFSVPLAELAQRKLHFSVYDFDRFSRHDLIGQVVLDNLLELAEQPPDRPLWRDILEGGSEKADLGELNFSLCYLPTAGRLTVTIIKASNLKAMDLTGFSDPYVKASLISEGRRLKKRKTSIKKNTLNPTYNEALVFDVAPESVENVGLSIAVVDYDCIGHNEVIGVCRVGPEAADPHGREHWAEMLANPRKPVEHWHQLVEEKTLSSFTKGGKGLSEKENSE [C10A], the “effect of a mutation on the interaction” value is “decreasing interaction”.

The next assay covers variants of B5. The note with it: with syt3_mouse Syt3, O35681.
As for MSFRKEDGVSSLAQKALHIITELCFAGQVEWDKCSGIFPADRSGQGGGGTDISVSLLAVVVSFCGLALLVVSLFVFWKLCWPCWKSKLVAPNLSVLPQSISSAPTEVFETEEKKEVEENEKPAPKAIEPAIKISHTSPDIPAEVQTALKEHLIKHARVQRQTTEPTSSSRHNSFRRHLPRQMNVSSVDFSVGTEPILQRGETRTSIGRIKPELYKQKSVDSEGNRKDDVKTCGKLNFALQYDYENELLVVKIIKALDLPAKDFTGTSDPYVKIYLLPDRKKKFQTRVHRKTLNPLFDELFQFPVVYDQLSNRKLHFSIYDFDRFSRHDMIGEVILDNLFEVSDLSREATVWKDIHCATTESIDLGEIMFSLCYLPTAGRMTLTVIKCRNLKAMDITGSSDPYVKVSLMCEGRRLKKRKTTTKKNTLNPVYNEAIIFDIPPENVDQVSLCIAVMDYDRVGHNEVIGVCRTGLDAEGLGRDHWNEMLAYHRKPITHWHPLLELPGRATSFDSQGSCSSPRPPSTP [C13A], the “effect of a mutation on the interaction” value is recorded as “decreasing interaction”.

A further assay covers variants of B6. The settings on record: with syt6_mouse Syt6, Q9R0N8.
MPGARDALAHQALQLLAELCARGALEHDSCQDFIYHLRDRARPRLRDPDISVSLLTLVVTACGLALFGVSLFVSWKLCWVPWRERGLFSGSKDNNQEPLNYTDTETNEQENSEDFLDPPTPCPDSSMKISHTSPDIPLSTQPGGQENCAHAVRVQRQVTEPTPSARHNSIRRQLNLSNPDFNIQQLQRQEQLTGIGRIKPELYKQRSLDNDDGRRSNSKACGKLNFILKYDCDLEQLIVKIHKAVNLPAKDFSGTSDPYVKIYLLPDRKTKHQTKVHRKTLNPVFDEVFLFPVHYNDLEARKLHFSVYDFDRFSRHDLIGQVVVDHFFDLADFPRECILWKDIEYVTNDNVDLGELMFSLCYLPTAGRLTITIIKARNLKAMDITGASDPYVKVSLMCDGRRLKKRKTSTKRNTLNPVYNEAIVFDVPPESIDQIHLSIAVMDYDRVGHNEVIGVCQVGNEAERLGRDHWSEMLSYPRKPIAHWHSLMEKR [C9A]: the “effect of a mutation on the interaction” value is listed as “decreasing interaction”.
